Numbering of substitutions follows the chain as printed. Where two headings read alike, the source gives them in different places. Bridge positions count the residues as written; N and C are the ends. Square brackets hold non-standard residues; d marks the D form. Ends that are not written are not given here. dCha = N[C@H](CC1CCCCC1)C(=O)O; Orn = NCCC[C@H](N)C(=O)O
Tests used:
C5aR [1] = conditions: cited from earlier work
Description: GPCRs represent the largest human membrane protein family, having overall more than 800 members, and constitute a “control panel” of the cell[27]. […] However, the peptidic nat ...

C5aR [2] = conditions: cited from earlier work; remark: listed apart in the source
Description: G-protein-coupled receptors (GPCRs) are a large family of versatile and dynamic cell surface receptors expressed in almost all tissue types. Upon ligand binding to highly conserved orthosteric binding sites, GPCR pass from a quiescent to an active state, initiating signal transduction. The conservation of orthosteric binding sites throughout the GPCR superfamily and a poor understanding of the mechanism underneath their activation cycle are two key factors currently hampering the development of specific drugs towards a specific sub-type in a GPCR family. […] We simultaneously recorded FD-based AFM height images and adhesion maps (Fig. 3b, c) and extracted FD curves located on C5aR having their native orientation (based on our height criterion) (Fig. 3d). Generally, force-probing methods such as FD-based AFM measure the strength of single bonds under an externally applied force. Described first by the Bell-Evans model, an external force stressing a bond reduces the activation-energy barri ...

[3] = target: T1, wild type C5a anaphylatoxin chemotactic receptor 1 (C5aR), reconstituted in DOPC/CHS liposomes (human, UniProt P21730 1-350, sulfonated tyrosine residues (Y11 and Y14)); test: AFM dynamic force spectroscopy (FV- and FD-based AFM, Friddle-Noy-de Yoreo fit); PMX53-Gly3-Cys coupled by its Cys to a PEG27-maleimide tip; C5aR (wild type or mutant) in DOPC/CHS liposomes adsorbed on mica; imaging buffer 20 mM HEPES, 300 mM NaCl; ≈24 °C; Kd calculated from ΔGbu = kbT × ln(0.018 Kd); conditions: both partners purified
T1 construct: C5a anaphylatoxin chemotactic receptor 1 (C5aR), human; wild type; Receptors lie in both orientations in the bilayer; also called C5aR^WT; wtC5aR; source: HEK-293S GnTI- cells (BacMam), purified (Ni-NTA, anti-Flag M1 resin, SEC), reconstituted in DOPC/CHS liposomes; not shown: His8, C-terminal, kept
T1 sequence (looked up): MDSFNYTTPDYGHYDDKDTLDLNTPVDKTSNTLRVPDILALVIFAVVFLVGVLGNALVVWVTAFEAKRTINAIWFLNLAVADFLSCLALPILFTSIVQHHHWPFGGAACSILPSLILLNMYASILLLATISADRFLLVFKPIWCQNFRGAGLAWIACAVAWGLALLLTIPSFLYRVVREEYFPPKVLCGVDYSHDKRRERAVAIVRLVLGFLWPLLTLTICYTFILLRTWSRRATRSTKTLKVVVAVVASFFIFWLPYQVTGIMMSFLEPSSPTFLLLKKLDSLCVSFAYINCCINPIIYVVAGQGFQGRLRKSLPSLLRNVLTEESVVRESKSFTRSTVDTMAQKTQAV

[4] = target: C5aR^WT incubated with PMX53 (effector site blocked) (human) (UniProt P21730); test: AFM dynamic force spectroscopy (FV- and FD-based AFM, Friddle-Noy-de Yoreo fit); C5a tethered by its N-terminal His6-tag to a tris-NTA-Ni2+ PEG27 tip; C5aR (wild type, mutant, or wild type incubated with PMX53) in DOPC/CHS liposomes adsorbed on mica; imaging buffer 20 mM HEPES, 300 mM NaCl; ≈24 °C; Kd calculated from ΔGbu = kbT × ln(0.018 Kd)
[5] = target: T1, wild type C5a anaphylatoxin chemotactic …; test: as above; conditions: both partners purified
[6] = target: T2, C5aRΔTyr mutant (Y11F and Y14F), reconstituted in DOPC/CHS liposomes (human, UniProt P21730 1-350, Y11F | Y14F); test: as above; conditions: both partners purified
T2 construct: C5a anaphylatoxin chemotactic receptor 1 (C5aR), human; lack of tyrosine sulfonation validated by western blot; The methods print the mutations as 'Y11F and F14F'; the results print Y11F and Y14F; also called C5aR∆Tyr; source: HEK-293S GnTI- cells (BacMam), purified, reconstituted in DOPC/CHS liposomes
T2 sequence (looked up): T1 sequence (looked up) with Y11F, Y14F

## CCCCn1c(-c2ccccc2)nc(-c2ccccc2)c1CN(Cc1ccc2c(c1)OCO2)Cc1ccc2c(c1)OCO2 [NDT9513727]
C5aR [1]; recent structural studies
  antagonist action: allosteric modulators with highly reversible action

## Ace-Phe-[{Orn}-Pro-{D-Cha}-Trp-Arg] (sidechain bridge or staple) [PMX53, cyclic antagonist peptide that mimics the C-terminal structure of the endogenous C5a ligand]
C5aR [1]
  antagonist action: potent orthosteric antagonist with insurmountable action
C5aR [2]
  affinity towards the effector site: nanomolar affinity

## Cc1ccc(NC(=O)[C@H]2CCCN(C(=O)c3c(C)cccc3F)[C@H]2c2ccc(NC3CCCC3)cc2)cc1C(F)(F)F [avacopan]
C5aR [1]; recent structural studies
  antagonist action: allosteric modulators with highly reversible action
C5aR [1]; to advance into late-stage clinical trials
  therapeutic efficacy: sufficient therapeutic efficacy

B1: PMX53-Gly3-Cys (Cys-Gly3-Phe-[{Orn}Pro-{D-Cha}-Trp-Arg]) (peptide)
chain: CGGGF[Orn]P[dCha]WR
modifications: lactam 6-C; not fully specified; printed as Cys-Gly3-Phe-[{Orn}Pro-{D-Cha}-Trp-Arg]
[3]
  Kd: 4.7 nM

B2: complement C5a anaphylatoxin with N-terminal His6-tag (ligand, human, UniProt P01031 678-751, looked up)
chain: TLQKKIEEIAAKYKHSVVKKCCYDGACVNNDETCEQRAARISLGPRCIKAFTECCVVASQLRANISHKDMQLGR
notes: C5a anaphylatoxin, the 74-amino acid cut product of complement C5; numbers count on: C5a itself (R74 is its C-terminal residue); Tethered by its His6-tag to a tris-NTA-Ni2+ PEG27 AFM tip; C5a from R&D Systems is named only for the GTPgammaS assay; also called C5a ligand; endogenous C5a ligand; not shown: His6, N-terminal, kept
[4]
  Kd: 800 mM
  equilibrium force Feq: 29 pN
  residence time τ0.5: 0.2 ms
[5]
  Kd: ~4.5 nM
[6]
  Kd: ~20 mM

Source: publication PMC7749166 (Communications Biology, 2020)
